Paper PMC10794133, “Structures of the promoter-bound respiratory syncytial virus polymerase”

B1: TrC10 (3' trailer complementary promoter of antigenome) (ssRNA)
RNA: UUUUUCUCGU
B2: Le10 (3' leader promoter of genome) (ssRNA)
RNA: UUUUUCGCGU

Tests used:
[1] = target: T1, RSV L (RNA-dependent RNA polymerase);RSV P (phosphoprotein) (human respiratory syncytial virus, …, UniProt P28887;P03421 1-2165;1-241, |); experiment: cryo-EM structure; pre-initiation at position 1; Cryo-EM grid conditions not in the material; protein in 25 mM HEPES pH 7.4, 300 mM NaCl, 6 mM MgSO4, 0.5 mM TCEP (gel filtration buffer); conditions: protein: recombinant;recombinant; tags: N-terminal 6xHis-TEV, TEV-treated;; copies: 1;4; single strand
T1 sequence (P28887 whole entry, chain 1 of 2): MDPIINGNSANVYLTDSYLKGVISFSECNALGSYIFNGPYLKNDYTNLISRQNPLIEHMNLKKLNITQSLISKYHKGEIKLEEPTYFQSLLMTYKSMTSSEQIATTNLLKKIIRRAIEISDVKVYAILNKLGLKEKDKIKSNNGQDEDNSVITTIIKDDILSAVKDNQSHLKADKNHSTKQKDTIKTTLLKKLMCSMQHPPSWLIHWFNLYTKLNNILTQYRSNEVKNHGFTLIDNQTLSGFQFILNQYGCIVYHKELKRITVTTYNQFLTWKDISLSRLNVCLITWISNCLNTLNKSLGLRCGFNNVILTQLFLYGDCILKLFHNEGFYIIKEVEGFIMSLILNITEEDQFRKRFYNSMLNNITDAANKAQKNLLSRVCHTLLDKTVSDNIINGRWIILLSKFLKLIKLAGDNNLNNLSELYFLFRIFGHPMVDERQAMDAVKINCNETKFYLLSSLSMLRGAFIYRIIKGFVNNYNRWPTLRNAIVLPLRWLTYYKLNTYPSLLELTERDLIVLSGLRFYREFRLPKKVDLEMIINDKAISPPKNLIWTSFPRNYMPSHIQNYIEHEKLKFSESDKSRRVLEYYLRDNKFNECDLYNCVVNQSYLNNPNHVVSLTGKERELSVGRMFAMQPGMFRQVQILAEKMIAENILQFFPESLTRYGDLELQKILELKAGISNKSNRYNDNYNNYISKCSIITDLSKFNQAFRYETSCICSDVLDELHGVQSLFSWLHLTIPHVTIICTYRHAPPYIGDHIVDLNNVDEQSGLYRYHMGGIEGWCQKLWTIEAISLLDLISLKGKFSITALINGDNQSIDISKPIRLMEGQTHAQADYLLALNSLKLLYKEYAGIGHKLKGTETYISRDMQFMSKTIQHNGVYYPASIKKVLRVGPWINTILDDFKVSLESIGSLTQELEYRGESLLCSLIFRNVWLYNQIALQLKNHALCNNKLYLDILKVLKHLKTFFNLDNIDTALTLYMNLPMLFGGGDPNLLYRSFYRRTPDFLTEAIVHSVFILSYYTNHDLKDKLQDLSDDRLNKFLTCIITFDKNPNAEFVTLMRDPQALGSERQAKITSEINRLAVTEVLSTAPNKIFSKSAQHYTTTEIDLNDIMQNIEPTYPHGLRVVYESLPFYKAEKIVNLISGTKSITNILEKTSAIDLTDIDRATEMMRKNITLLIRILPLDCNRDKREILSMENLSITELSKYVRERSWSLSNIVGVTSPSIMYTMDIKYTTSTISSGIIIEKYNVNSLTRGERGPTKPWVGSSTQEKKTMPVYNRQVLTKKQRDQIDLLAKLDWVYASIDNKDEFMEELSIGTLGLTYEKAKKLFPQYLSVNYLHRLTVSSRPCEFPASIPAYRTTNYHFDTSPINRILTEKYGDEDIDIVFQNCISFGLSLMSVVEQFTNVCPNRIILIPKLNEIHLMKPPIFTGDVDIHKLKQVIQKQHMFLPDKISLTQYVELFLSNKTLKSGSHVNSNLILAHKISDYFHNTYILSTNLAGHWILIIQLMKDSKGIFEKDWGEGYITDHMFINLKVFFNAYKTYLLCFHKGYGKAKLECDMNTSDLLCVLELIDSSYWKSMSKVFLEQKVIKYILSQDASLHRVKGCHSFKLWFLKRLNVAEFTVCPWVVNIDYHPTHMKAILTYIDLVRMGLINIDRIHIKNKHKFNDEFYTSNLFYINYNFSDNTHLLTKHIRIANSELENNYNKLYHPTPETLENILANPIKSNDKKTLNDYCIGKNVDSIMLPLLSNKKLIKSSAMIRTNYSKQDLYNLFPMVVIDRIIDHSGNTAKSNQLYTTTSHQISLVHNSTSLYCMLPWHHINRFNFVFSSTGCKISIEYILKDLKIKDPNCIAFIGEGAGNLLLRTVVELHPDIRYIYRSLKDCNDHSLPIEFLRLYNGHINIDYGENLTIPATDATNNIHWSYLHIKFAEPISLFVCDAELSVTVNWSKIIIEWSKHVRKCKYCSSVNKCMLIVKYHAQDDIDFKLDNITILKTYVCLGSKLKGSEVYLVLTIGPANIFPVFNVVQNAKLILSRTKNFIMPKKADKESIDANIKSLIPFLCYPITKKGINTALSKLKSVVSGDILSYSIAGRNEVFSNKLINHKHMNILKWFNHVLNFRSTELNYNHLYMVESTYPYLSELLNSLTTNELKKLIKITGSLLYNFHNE
T1 sequence (P03421 whole entry, chain 2 of 2): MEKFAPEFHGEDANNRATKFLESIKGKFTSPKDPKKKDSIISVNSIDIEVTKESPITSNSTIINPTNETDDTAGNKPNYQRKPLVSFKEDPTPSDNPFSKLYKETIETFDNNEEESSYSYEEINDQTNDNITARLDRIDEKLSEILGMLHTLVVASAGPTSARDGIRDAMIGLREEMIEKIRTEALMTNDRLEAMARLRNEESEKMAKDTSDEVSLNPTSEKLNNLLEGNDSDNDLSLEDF

[2] = target: T1, RSV L (RNA-dependent RNA …); experiment: cryo-EM structure; GTP and CpNpp supplemented (no product density); pre-initiation at position 3; Cryo-EM grid conditions not in the material; protein in 25 mM HEPES pH 7.4, 300 mM NaCl, 6 mM MgSO4, 0.5 mM TCEP (gel filtration buffer); conditions: protein: recombinant;recombinant; tags: N-terminal 6xHis-TEV, TEV-treated;; copies: 1;4; single strand

Row | Binder | binding result [1] | binding result [2]
1 | B1 | binds | –
2 | B2 | – | binds
